Non-standard residues stand in square brackets, D forms with d. No end group written: not given here. pY = N[C@@H](Cc1ccc(OP(=O)(O)O)cc1)C(=O)O
The binders below were run against STAT3 with DNA-binding activity in vitro (activated STAT3 dimers) (assay: cell-based or functional assay).
With P[pY]LKTK [PY*LKTK (SEQ ID NO:20)] the “IC50, Disruption of STAT3 DNA-binding Activity” value (“IC50, Disruption” for short) was 280 µM. A[pY]LK [AY*LK (SEQ ID NO:30)] was tested, and the “IC50, Disruption” value was 365 µM. In the case of Ac-[pY]-Leu-Lys [Ac-Y*LK (SEQ ID NO:31)], the “IC50, Disruption” value is reported as 421 µM. With Ac-P[pY]LKTK [Ac-PY*LKTK (SEQ ID NO:32)] the “IC50, Disruption” value was 212 µM. With Ac-P[pY]LK [Ac-PY*LK (SEQ ID NO:34)] the “IC50, Disruption” value was 156 µM. For P[pY]LA [PY*LA (SEQ ID NO:35)], the “IC50, Disruption” value was 326 µM.
